Data published in IntAct's records for PubMed 29039417.

B1: Protein PTHB1 (Homo sapiens), Q3SYG4 (parent)
chain: MSLFKARDWWSTILGDKEEFDQGCLCLANVDNSGNGQDKIIVGSFMGYLRIFSPHPAKTGDGAQAEDLLLEVDLRDPVLQVEVGKFVSGTEMLHLAVLHSRKLCVYSVSGTLGNVEHGNQCQMKLMYEHNLQRTACNMTYGSFGGVKGRDLICIQSMDGMLMVFEQESYAFGRFLPGFLLPGPLAYSSRTDSFLTVSSCQQVESYKYQVLAFATDADKRQETEQQKLGSGKRLVVDWTLNIGEQALDICIVSFNQSASSVFVLGERNFFCLKDNGQIRFMKKLDWSPSCFLPYCSVSEGTINTLIGNHNNMLHIYQDVTLKWATQLPHIPVAVRVGCLHDLKGVIVTLSDDGHLQCSYLGTDPSLFQAPNVQSRELNYDELDVEMKELQKIIKDVNKSQGVWPMTEREDDLNVSVVVSPNFDSVSQATDVEVGTDLVPSVTVKVTLQNRVILQKAKLSVYVQPPLELTCDQFTFEFMTPDLTRTVSFSVYLKRSYTPSELEGNAVVSYSRPTDRNPDGIPRVIQCKFRLPLKLICLPGQPSKTASHKITIDTNKSPVSLLSLFPGFASQSDDDQVNVMGFHFLGGARITVLASKTSQRYRIQSEQFEDLWLITNELILRLQEYFEKQGVKDFACSFSGSIPLQEYFELIDHHFELRINGEKLEELLSERAVQFRAIQRRLLARFKDKTPAPLQHLDTLLDGTYKQVIALADAVEENQGNLFQSFTRLKSATHLVILLIALWQKLSADQVAILEAAFLPLQEDTQELGWEETVDAAISHLLKTCLSKSSKEQALNLNSQLNIPKDTSQLKKHITLLCDRLSKGGRLCLSTDAAAPQTMVMPGGCTTIPESDLEERSVEQDSTELFTNHRHLTAETPRPEVSPLQGVSE
partner: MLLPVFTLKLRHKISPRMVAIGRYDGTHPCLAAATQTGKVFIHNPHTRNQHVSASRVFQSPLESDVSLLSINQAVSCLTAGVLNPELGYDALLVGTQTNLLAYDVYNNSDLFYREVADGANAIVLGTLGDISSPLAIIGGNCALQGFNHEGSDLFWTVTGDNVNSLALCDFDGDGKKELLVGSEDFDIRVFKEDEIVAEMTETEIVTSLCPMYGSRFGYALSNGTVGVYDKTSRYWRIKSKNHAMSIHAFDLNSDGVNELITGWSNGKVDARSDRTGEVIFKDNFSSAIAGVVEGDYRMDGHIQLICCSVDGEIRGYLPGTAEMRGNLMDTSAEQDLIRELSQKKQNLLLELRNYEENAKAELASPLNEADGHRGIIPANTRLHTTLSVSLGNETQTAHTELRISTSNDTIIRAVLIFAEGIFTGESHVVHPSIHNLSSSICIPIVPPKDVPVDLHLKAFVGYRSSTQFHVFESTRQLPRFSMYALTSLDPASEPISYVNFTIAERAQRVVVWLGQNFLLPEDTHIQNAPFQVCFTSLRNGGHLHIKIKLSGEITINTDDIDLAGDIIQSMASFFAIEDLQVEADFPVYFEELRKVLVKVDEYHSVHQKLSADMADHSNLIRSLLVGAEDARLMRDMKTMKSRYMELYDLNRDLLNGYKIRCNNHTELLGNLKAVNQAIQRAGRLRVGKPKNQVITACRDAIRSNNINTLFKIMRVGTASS

Variants of: B1
Conditions: with bbs2_human BBS2, Q9BXC9

Row | Variant | effect of a mutation on the interaction
1 | V440E | with no effect
2 | V440A | with no effect
3 | V440K | with no effect
4 | D429K | with no effect
5 | D429A | with no effect
6 | D429E | with no effect
7 | V417A | with no effect
8 | V417K | with no effect
9 | V417E | with no effect
10 | V430A | with no effect
11 | V430K | with no effect
12 | V430E | with no effect
13 | S414K | with no effect
14 | S414A | with no effect
15 | S414E | with no effect
16 | T445A | with no effect
17 | T445E | with no effect
18 | T445K | with no effect
19 | D409A | with no effect
20 | D409E | with no effect
21 | D409K | with no effect
22 | A427E | with no effect
23 | A427K | with no effect
24 | G433K | with no effect

Row | Variant | effect of a mutation on the interaction
25 | G433E | with no effect
26 | G433A | with no effect
27 | S423A | with no effect
28 | S423K | with no effect
29 | S423E | with no effect
30 | V437K | with no effect
31 | V437E | with no effect
32 | V437A | with no effect
33 | V432K | with no effect
34 | V432A | with no effect
35 | V432E | with no effect
36 | V424A | with no effect
37 | V424E | with no effect
38 | V424K | with no effect
39 | L411E | with no effect
40 | L411K | with no effect
41 | L411A | with no effect
42 | T441E | with no effect
43 | T441A | with no effect
44 | T441K | with no effect
45 | L436K | with no effect
46 | L436A | with no effect
47 | L436E | with no effect
48 | L446K | with no effect

Row | Variant | effect of a mutation on the interaction
49 | L446E | with no effect
50 | L446A | with no effect
51 | N412K | with no effect
52 | N412A | with no effect
53 | N412E | with no effect
54 | P419A | with no effect
55 | P419K | with no effect
56 | P419E | with no effect
57 | T434E | with no effect
58 | T434A | with no effect
59 | T434K | with no effect
60 | V416A | with no effect
61 | V416E | with no effect
62 | V416K | with no effect
63 | F421E | with no effect
64 | F421K | with no effect
65 | F421A | with no effect
66 | T428E | with no effect
67 | T428K | with no effect
68 | T428A | with no effect
69 | R407E | with no effect
70 | R407K | with no effect
71 | R407A | with no effect
72 | V442A | with no effect

Row | Variant | effect of a mutation on the interaction
73 | V442E | with no effect
74 | V442K | with no effect
75 | N420K | with no effect
76 | N420A | with no effect
77 | N420E | with no effect
78 | D422E | with no effect
79 | D422K | with no effect
80 | D422A | with no effect
81 | K443A | with no effect
82 | K443E | with no effect
83 | T405E | with no effect
84 | T405K | with no effect
85 | T405A | with no effect
86 | D410K | with no effect
87 | D410E | with no effect
88 | D410A | with no effect
89 | D435E | with no effect
90 | D435A | with no effect
91 | D435K | with no effect
92 | Q426A | with no effect
93 | Q426K | with no effect
94 | Q426E | with no effect
